Data: the supplement of paper PMC9732359
± gives the uncertainty stated by the source.

Experiment: protein stability index of a GFP-peptide fusion (yeast GPS) (PSI 1-4); higher = more stable; sorted into four equal gates, so the index is relative within each strain
How it was run: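 Plasmids in a pooled yeast library fused tiled 17-residue yeast protein peptides downstream of GFP and also expressed Cherry. Mid-log cultures grown without leucine were sorted into four equal gates by GFP/Cherry fluorescence ratio. Each gate's plasmids were PCR-amplified and Illumina-sequenced, and reads were matched to strains by barcodes. The protein stability index is derived by multiplying each gate's read frequency by its gate number and summing the results.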

Sequence | protein stability index (pdr5∆) | protein stability index (doa10∆) | protein stability index (san1∆) | protein stability index (ubr1∆)
GIAIGLNKGKKVTQMTP [RPL36B] | 1.51 ± 0.2 | – | – | –
NSPTSFFDGSASSTPIP [YOR098C/NUP1] | 2.8 ± 0.049 | 3.19 ± 0.07 | 2.94 ± 0.052 | 2.84 ± 0.046
IKDLQRAINKVLCTRLR [SIR2] | 1.33 ± 0.06 | 1.78 ± 0.063 | 1.18 ± 0.11 | 1.54 ± 0.045
SPKPYAVKYGLNHVVSL [RPL8B] | 2.09 ± 0.069 | 1.96 ± 0.07 | 2.09 ± 0.092 | 1.94 ± 0.046
NNNNNNNNSNNIMSASG [YGL172W/NUP49] | 2.48 ± 0.038 | 2.73 ± 0.059 | 2.67 ± 0.077 | 3.1 ± 0.059
LEKISSSNKDLEDEKMK [SMC4] | 3.15 ± 0.093 | 3.31 ± 0.079 | 3.23 ± 0.038 | 3.26 ± 0.077
NEYPVADAVTKDLKLRR [REC8] | 3.23 ± 0.095 | 3.08 ± 0.1 | 3.28 ± 0.038 | 3.23 ± 0.041
LTNILRMMGCVKKQKSA [FAS2] | 2.1 ± 0.078 | 1.91 ± 0.068 | 1.81 ± 0.12 | 1.35 ± 0.066
LEAVNSMIEKGGDWERR [RPN7] | 3.1 ± 0.093 | 3.02 ± 0.1 | 2.8 ± 0.08 | 2.87 ± 0.06
FRALGIIPDGEILEHIC [RPB2] | 2.55 ± 0.12 | 2.43 ± 0.057 | 2.46 ± 0.089 | 2.79 ± 0.047
RRRLLGPAAAKPMAFSN [MTR3] | 3.17 ± 0.055 | 3.06 ± 0.071 | 3.23 ± 0.057 | 3.21 ± 0.038
LNVGNVLPLGSVPEGTI [RPL2A] | 3.15 ± 0.082 | 3.2 ± 0.077 | 3.26 ± 0.1 | 3.28 ± 0.061
GEIVSINQINEAHPTKV [RPL20A] | 2.98 ± 0.17 | 3.17 ± 0.25 | 3.06 ± 0.06 | 2.77 ± 0.092
EDRPPEYWAQRKKKFVL [ISW2] | 3.13 ± 0.19 | – | – | –
RLGGDDLRIRIKLDIVV [SNF5] | 1.33 ± 0.097 | 1.35 ± 0.16 | 1.54 ± 0.13 | 1.29 ± 0.099
TWYVGNSRGKFDDACNQ [SSN2] | 3.14 ± 0.12 | 3.43 ± 0.19 | 2.9 ± 0.11 | 3.26 ± 0.16
AAGSYYVEAQHKLVFVV [RPL7A] | 2.74 ± 0.048 | 2.33 ± 0.072 | 2.26 ± 0.069 | 2.4 ± 0.044
SRSSVCVKAIEALFQSR [YCG1] | 2.92 ± 0.085 | 3.14 ± 0.064 | 3.04 ± 0.077 | 2.97 ± 0.066
KVAEVKKLEGTIEYQKL [RPT4] | 3.16 ± 0.11 | 3.13 ± 0.12 | 3.17 ± 0.074 | 3.57 ± 0.082
MSREGFQIPTNLDAAAA [RPC10] | 1.08 ± 0.082 | 1.28 ± 0.1 | 1.35 ± 0.16 | 1.16 ± 0.2
NSNSNSGSLFGSNNAQT [YGL172W/NUP49] | 3.24 ± 0.085 | 2.6 ± 0.13 | 2.9 ± 0.3 | 3.11 ± 0.11
MRILSNDITNLQLSKTP [SRB8] | 2.71 ± 0.08 | 2.59 ± 0.058 | 2.92 ± 0.052 | 2.8 ± 0.046
EDNEMLEDLFSYRNGMA [YJR042W/NUP85] | 1.89 ± 0.086 | 2.02 ± 0.082 | 2.65 ± 0.089 | 1.95 ± 0.079
GWKPLRYLDNLKQEIDR [SNU114] | – | – | – | 3.15 ± 0.13
LTNDTFEKKLSIIKAKL [YML103C/NUP188] | 2.99 ± 0.23 | 2.8 ± 0.11 | 2.43 ± 0.21 | 3.3 ± 0.19
CNDEDKDLETLYNKIWT [ECM29] | 3.06 ± 0.065 | 3.04 ± 0.081 | 2.44 ± 0.074 | 2.88 ± 0.037
TGSIRHRLKLCKSLISE [CSE2] | – | 3.49 ± 0.29 | – | –
SIDFRTYRCSIKNLPAD [SRB2] | 2.56 ± 0.079 | 2.32 ± 0.074 | 2.19 ± 0.07 | 2.27 ± 0.067

Sequence | protein stability index (pdr5∆) | protein stability index (doa10∆) | protein stability index (san1∆) | protein stability index (ubr1∆)
YPRLQDPSRELNVIIDQ [YCS4] | 3.09 ± 0.08 | 3.2 ± 0.076 | 3.34 ± 0.052 | 3.07 ± 0.082
INKMVGNRYLEKRLNLR [RPL21A] | 2.8 ± 0.077 | 2.65 ± 0.085 | 2.92 ± 0.092 | 3 ± 0.065
ISTYISTDELVGSPLTV [POP8] | 2.6 ± 0.1 | 1.49 ± 0.13 | 2.27 ± 0.16 | 2.2 ± 0.081
TYGFSILDIVINNPVNL [FAS1] | 2.37 ± 0.075 | 2.07 ± 0.087 | 2.53 ± 0.092 | 3.02 ± 0.074
RCFENLQNKSFKSVLPI [UBP6] | 1.98 ± 0.09 | 2.35 ± 0.076 | 2.05 ± 0.12 | 2.45 ± 0.057
VLSTFTAEFGKILAGLH [RPN10] | 3.44 ± 0.15 | 3.11 ± 0.14 | 3.1 ± 0.14 | 3.05 ± 0.11
IPRHLQLAIRNDDELNK [HTA1] | 3.23 ± 0.063 | 3.02 ± 0.093 | 3.28 ± 0.059 | 2.89 ± 0.062
LEVANDLQLLYVESDED [IRR1] | 1.21 ± 0.091 | 1.43 ± 0.13 | 1.42 ± 0.2 | 1.13 ± 0.046
FKYVSVRYEEKRELKQL [BRR2] | 2.93 ± 0.056 | 2.63 ± 0.068 | 2.93 ± 0.067 | 3.13 ± 0.05
SLLAMHKHNIMKNENAN [CDC53] | 2.58 ± 0.066 | 2.2 ± 0.064 | 2.82 ± 0.072 | 3.05 ± 0.046
MAKVHGSLARAGKVKSQ [RPS30A] | 2.7 ± 0.068 | 2.38 ± 0.067 | 2.49 ± 0.066 | 2.44 ± 0.054
EETDEVSSESSDEAIIP [SIR3] | 2.52 ± 0.056 | 2.93 ± 0.068 | 2.73 ± 0.065 | 2.82 ± 0.043
GELDVLQIESVTKETVH [PRP8] | 2.73 ± 0.066 | 2.54 ± 0.054 | 2.55 ± 0.07 | 2.76 ± 0.064
APKWYPSEDVAALKKTR [RPL6A] | 2.97 ± 0.063 | 2.5 ± 0.07 | 2.75 ± 0.049 | 2.53 ± 0.051
LVDTPSNNTAATADTTH [NUT1] | – | – | 3.21 ± 0.059 | 3.17 ± 0.082
REIQTAVRLILPGELAK [HTB1] | 3.14 ± 0.06 | 3.25 ± 0.088 | 2.55 ± 0.088 | 3.08 ± 0.051
NTNGTNASANSTSFSFN [YOR098C/NUP1] | 3.12 ± 0.045 | 2.91 ± 0.045 | 2.99 ± 0.042 | 3.06 ± 0.031
KDSTAGKKVFETQYFWK [YJR042W/NUP85] | – | – | 3.03 ± 0.21 | –
DSDELGGESMEGPKKCI [SNM1] | 3.51 ± 0.086 | 3.38 ± 0.086 | 3.39 ± 0.076 | 3.4 ± 0.071
EQQKGQQTAQTQLEQQR [SNF5] | 3.4 ± 0.088 | 3.33 ± 0.11 | 3.22 ± 0.079 | 3.1 ± 0.053
IKVDGAVGNLGNAIEVT [RPL22B] | 2.4 ± 0.076 | 1.74 ± 0.12 | 1.8 ± 0.14 | 1.58 ± 0.047
EDGRTLSDYNIQKESTL [RPS31] | 3.02 ± 0.066 | 2.92 ± 0.081 | 3.05 ± 0.065 | 3.01 ± 0.09
EPLAFYLEESFTNLGII [RGR1] | 2.18 ± 0.053 | 1.67 ± 0.063 | 2.35 ± 0.071 | 2.57 ± 0.045
ILTTAVGLVSPSFMLKH [RPN1] | 1.93 ± 0.12 | 1.96 ± 0.16 | 1.3 ± 0.13 | 1.52 ± 0.077
FFLQRKLRSELGYKDTS [BRR2] | 1.53 ± 0.071 | 2.11 ± 0.091 | 1.71 ± 0.12 | 1.35 ± 0.18
ENDEEDIYMHDVNSASK [RRP4] | 3.47 ± 0.095 | 3.47 ± 0.098 | 3.01 ± 0.095 | 3.31 ± 0.059
EPGVLNTGDGSISTYKD [ECM29] | 3.22 ± 0.15 | 3.28 ± 0.15 | – | –
